From publication PMC3774380 come the findings set out here.

For the series, the target named is L-glucagon (natural) (human) (UniProt P01275). The series is described as follows: competitive pull-down. To be noted: all L-nucleotides, Selection buffer: 20 mM Tris pH 7.4, 150 mM NaCl, 5 mM KCl, 1 mM MgCl2, 1 mM CaCl2, 0.1% Tween 20, 0.1% CHAPS, 100 ug/ml HSA, 10 ug/ml yeast RNA, 37 C ….
Sequence of L-glucagon (natural) (human) (P01275 53-81): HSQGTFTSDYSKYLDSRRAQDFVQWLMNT

In the case of “GCGGGAAATGGGAGGGCTAGGTGGAAGGAATCTGAGCGC [L-257-E1-030-6xR]”, the Kd (ribonucleotides at positions 5, 11, 14, 15, 25, 26, rest deoxy) is 6.3 nM.
Under “ribonucleotides at positions 15, 29, 30, rest deoxy”, “GCAGTGGGGAAATGGGAGGGCTAGGTGGAAGGAATCTGAGCTACTGC [L-257-E1-001-R15/29/30]” returned a Kd of 20 nM.
“GCAGTGGGGAAATGGGAGGGCTAGGTGGAAGGAATCTGAGCTACTGC [L-257-E1-001-6xR]”: the Kd (ribonucleotides at positions 9, 15, 18, 19, 29, 30, rest deoxy) was determined as 6.4 nM.
